Target: laminin β1 LN–LEa1–4 fragment (mouse, UniProt P02469 22-509)
Test: SPR

Chain of laminin β1 LN–LEa1–4 fragment (P02469 22-509): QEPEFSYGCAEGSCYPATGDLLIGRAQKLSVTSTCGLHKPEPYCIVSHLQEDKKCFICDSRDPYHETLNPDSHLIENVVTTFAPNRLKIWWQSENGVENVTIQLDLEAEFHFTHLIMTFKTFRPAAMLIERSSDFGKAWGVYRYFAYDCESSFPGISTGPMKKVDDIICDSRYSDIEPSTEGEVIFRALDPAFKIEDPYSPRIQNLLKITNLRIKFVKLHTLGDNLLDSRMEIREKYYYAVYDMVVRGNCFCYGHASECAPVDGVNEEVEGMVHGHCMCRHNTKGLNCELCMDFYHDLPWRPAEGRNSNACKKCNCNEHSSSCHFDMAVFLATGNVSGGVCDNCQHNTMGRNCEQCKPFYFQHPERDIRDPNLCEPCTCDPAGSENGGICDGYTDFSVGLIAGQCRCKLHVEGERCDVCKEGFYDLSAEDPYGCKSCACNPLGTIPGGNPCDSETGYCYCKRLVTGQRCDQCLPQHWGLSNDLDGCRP

B1: laminin γ1 LN–LEa1–4 fragment (domain or fragment, mouse, UniProt P02468 34-492, looked up)
chain: AMDECADEGGRPQRCMPEFVNAAFNVTVVATNTCGTPPEEYCVQTGVTGVTKSCHLCDAGQQHLQHGAAFLTDYNNQADTTWWQSQTMLAGVQYPNSINLTLHLGKAFDITYVRLKFHTSRPESFAIYKRTREDGPWIPYQYYSGSCENTYSKANRGFIRTGGDEQQALCTDEFSDISPLTGGNVAFSTLEGRPSAYNFDNSPVLQEWVTATDIRVTLNRLNTFGDEVFNEPKVLKSYYYAISDFAVGGRCKCNGHASECVKNEFDKLMCNCKHNTYGVDCEKCLPFFNDRPWRRATAESASESLPCDCNGRSQECYFDPELYRSTGHGGHCTNCRDNTDGAKCERCRENFFRLGNTEACSPCHCSPVGSLSTQCDSYGRCSCKPGVMGDKCDRCQPGFHSLTEAGCRPCSCDLRGSTDECNVETGRCVCKDNVEGFNCERCKPGFFNLESSNPKGCTP
Kd: ≥ 5 µM

From publication PMC3059903 (EMBO Reports, 2011)
